Assay results: publication PMC8238500

Columns and labels:
Test in all cases: BRET (NanoLuc-miniG recruitment to plasma-membrane K-ras-YFP)
[1] = target: NES-NanoLuc-MiniG subtype miniGi; conditions: 500 ng receptor plasmid; parent: est. -0.023; read off a plot
[2] = target: NES-NanoLuc-MiniG subtype miniG12; conditions: 500 ng receptor plasmid; parent: est. 0.020; read off a plot
[3] = target: NES-NanoLuc-MiniG subtype miniGs; conditions: 500 ng receptor plasmid; parent: est. 0.092; read off a plot
[4] = target: NES-NanoLuc-MiniG subtype miniGq; conditions: 500 ng receptor plasmid; parent: est. -0.030; read off a plot

A response [1] of -0.013 AU, a response [2] of 0.027 AU and a response [3] of 0.011 AU were found for “G protein-coupled receptor 3 (GPR3), wild type (from UniProt P46089) DRY-mutant” in this work. It also gave a response [4] of -0.015 AU.
